Data: patent publication US10047131B2, “Peptides and combination of peptides for use in immunotherapy against ovarian cancer and other cancers” (immatics biotechnologies GmbH, priority 2015, dated 2018)

Target: HLA-A*02:01 (Homo sapiens, UniProt P04439, D140Y/D185E/D98H/E176V/E277Q/G131W/G231S/I119V/I121R/I166T/I218V/L300P/L318F/N151K/N90K/P208A/P217A/Q86G/Q94H/R138H/R169H/T345S)
Test: MHC binding assay (UV-ligand exchange, ELISA of exchange yield)
Settings: binding to HLA-A*02:01, UV-ligand exchange
Description: Candidate peptides for T cell based therapies according to the present invention were further tested for their MHC binding capacity (affinity). The individual peptide-MHC complexes were produced by UV-ligand exchange, where a UV-sensitive peptide is cleaved upon UV-irradiation, and exchanged with the peptide of interest as analyzed. Only peptide candidates that can effectively bind and stabilize the peptide-receptive MHC molecules prevent dissociation of the MHC complexes. To determine the yield of the exchange reaction, an ELISA was performed based on the detection of the light chain (p2m) of stabilized MHC complexes. The assay was performed as generally described in Rodenko et al. (Rodenko et al., 2006).
96 well MAXISorp plates (NUNC) were coated over night with 2 μg/ml streptavidin in PBS at room temperature, washed 4× and blocked for 1 h at 37° C. in 2% BSA containing blocking buffer. […] Peptide-MHC monomers of the UV-exchange reaction were diluted 100 fold in blocking buffer. Samples were incubated for 1h at 37° C., washed four times, incubated with 2 μg/ml HRP conjugated anti-β2m for 1h at 37° C., washed again and detected with TMB solution that is stopped with […]. Absorption was measured at 450 nm. Candidate peptides that show a high exchange yield (preferably higher than 50%, most preferred higher than 75%) are generally preferred for a generation and production of antibodies or fragments thereof, and/or T cell receptors or fragments thereof, as they show sufficient avidity to the MHC molecules and prevent dissociation of the MHC complexes.

With “428 (KLGHTDILVGV; listed as Homo sapiens) [compound 428]” as the substance, how does the “Peptide exchange (MHC class I binding score, peptide exchange yield)” value (from here on “Peptide exchange”) read?
The value was ““++” (≥20% = ++)”.

For “530 (VMYADIGGMDI; listed as Homo sapiens) [compound 530]”, which “Peptide exchange” value is on record?
Its value is ““+++” (≥50 = +++)”.

How did the “Peptide exchange” value turn out when “527 (FLLEPGNLEV; listed as Homo sapiens) [compound 527]” was run?
Its value is ““++++” (≥75% = ++++)”.

How did the “Peptide exchange” value turn out when “77 (ILVEADGAWVV; listed as Homo sapiens) [compound 77]” was run?
The value was ““++++” (≥75% = ++++)”.

Which “Peptide exchange” value does the source give for “63 (YLLPSGGSVTL; listed as Homo sapiens) [compound 63]” here?
The value was ““++” (≥20% = ++)”.

With “492 (SLFDGFADGLGV; listed as Homo sapiens) [compound 492]” as the substance, how does the “Peptide exchange” value read?
The value was ““+++” (≥50 = +++)”.

For “327 (GLAPFTEGISFV; listed as Homo sapiens) [compound 327]”, which “Peptide exchange” value is on record?
Its value is ““+++” (≥50 = +++)”.

Which “Peptide exchange” value does the source give for “594 (IMLKGDNITL; listed as Homo sapiens) [compound 594]” here?
The value was ““+++” (≥50 = +++)”.

“438 (KLLPLAGLYL; listed as Homo sapiens) [compound 438]” was tested. Which “Peptide exchange” value did it give?
Its value is ““++++” (≥75% = ++++)”.

With “547 (TLDITPHTV; listed as Homo sapiens) [compound 547]” as the substance, how does the “Peptide exchange” value read?
The value was ““+++” (≥50 = +++)”.

Which “Peptide exchange” value does the source give for “622 (RLLGEEVVRVLQA; listed as Homo sapiens) [compound 622]” here?
The value was ““+++” (≥50 = +++)”.

How did the “Peptide exchange” value turn out when “604 (SILDRDDIFV; listed as Homo sapiens) [compound 604]” was run?
The value was ““+++” (≥50 = +++)”.

“152 (ILFEDIFDV; listed as Homo sapiens) [compound 152]” was tested. Which “Peptide exchange” value did it give?
Its value is ““+++” (≥50 = +++)”.

How did the “Peptide exchange” value turn out when “10 (FLATFPLAAV; listed as Homo sapiens) [compound 10]” was run?
The value was ““++++” (≥75% = ++++)”.

With “255 (VLASYNLTV; listed as Homo sapiens) [compound 255]” as the substance, how does the “Peptide exchange” value read?
The value was ““+++” (≥50 = +++)”.

How did the “Peptide exchange” value turn out when “508 (ILAQEQLVVGV; listed as Homo sapiens) [compound 508]” was run?
The value was ““+++” (≥50 = +++)”.

“221 (ALYEEGLLL; listed as Homo sapiens) [compound 221]” was tested. Which “Peptide exchange” value did it give?
Its value is ““++” (≥20% = ++)”.

With “387 (ALFQATAEV; listed as Homo sapiens) [compound 387]” as the substance, how does the “Peptide exchange” value read?
The value was ““++++” (≥75% = ++++)”.

“7 (SLVGLLLYL; listed as Homo sapiens) [compound 7]” was tested. Which “Peptide exchange” value did it give?
Its value is ““++++” (≥75% = ++++)”.

How did the “Peptide exchange” value turn out when “623 (YLVEDIQHI; listed as Homo sapiens) [compound 623]” was run?
Its value is ““+++” (≥50 = +++)”.

For “50 (SLSELEALM; listed as Homo sapiens) [compound 50]”, which “Peptide exchange” value is on record?
Its value is ““+++” (≥50 = +++)”.

Which “Peptide exchange” value does the source give for “47 (ILLSVPLLVV; listed as Homo sapiens) [compound 47]” here?
Its value is ““++” (≥20% = ++)”.

For “240 (ILLEQAFYL; listed as Homo sapiens) [compound 240]”, which “Peptide exchange” value is on record?
The value was ““+++” (≥50 = +++)”.

“590 (SLIEKLWQT; listed as Homo sapiens) [compound 590]” was tested. Which “Peptide exchange” value did it give?
Its value is ““++” (≥20% = ++)”.

How did the “Peptide exchange” value turn out when “115 (AIAGAGILYGV; listed as Homo sapiens) [compound 115]” was run?
Its value is ““++” (≥20% = ++)”.

With “434 (KVSNSGITRV; listed as Homo sapiens) [compound 434]” as the substance, how does the “Peptide exchange” value read?
Its value is ““++” (≥20% = ++)”.

“228 (AMQEYIAVV; listed as Homo sapiens) [compound 228]” was tested. Which “Peptide exchange” value did it give?
The value was ““++” (≥20% = ++)”.

How did the “Peptide exchange” value turn out when “402 (VLFSGALLGL; listed as Homo sapiens) [compound 402]” was run?
Its value is ““++” (≥20% = ++)”.

“166 (YLNHLEPPV; listed as Homo sapiens) [compound 166]” was tested. Which “Peptide exchange” value did it give?
The value was ““+++” (≥50 = +++)”.

With “393 (GLLDTQTSQVLTA; listed as Homo sapiens) [compound 393]” as the substance, how does the “Peptide exchange” value read?
Its value is ““++” (≥20% = ++)”.

Which “Peptide exchange” value does the source give for “441 (ALLENPKMEL; listed as Homo sapiens) [compound 441]” here?
The value was ““+++” (≥50 = +++)”.

For “216 (NLWEDPYYL; listed as Homo sapiens) [compound 216]”, which “Peptide exchange” value is on record?
The value was ““+++” (≥50 = +++)”.

For “468 (YLRSVGDGETV; listed as Homo sapiens) [compound 468]”, which “Peptide exchange” value is on record?
Its value is ““+++” (≥50 = +++)”.

With “342 (HIYDKVMTV; listed as Homo sapiens) [compound 342]” as the substance, how does the “Peptide exchange” value read?
Its value is ““+++” (≥50 = +++)”.

With “158 (KLFDVDEDGYI; listed as Homo sapiens) [compound 158]” as the substance, how does the “Peptide exchange” value read?
The value was ““+++” (≥50 = +++)”.

With “427 (ALLPLSPYL; listed as Homo sapiens) [compound 427]” as the substance, how does the “Peptide exchange” value read?
Its value is ““+++” (≥50 = +++)”.

How did the “Peptide exchange” value turn out when “429 (GLVNDLARV; listed as Homo sapiens) [compound 429]” was run?
The value was ““++” (≥20% = ++)”.

For “320 (KMFEFVEPLL; listed as Homo sapiens) [compound 320]”, which “Peptide exchange” value is on record?
Its value is ““++++” (≥75% = ++++)”.

For “96 (YIFTDNPAAV; listed as Homo sapiens) [compound 96]”, which “Peptide exchange” value is on record?
The value was ““+++” (≥50 = +++)”.

For “395 (ALALGGIAVV; listed as Homo sapiens) [compound 395]”, which “Peptide exchange” value is on record?
Its value is ““++++” (≥75% = ++++)”.

For “450 (FMIDASVHPTL; listed as Homo sapiens) [compound 450]”, which “Peptide exchange” value is on record?
The value was ““+++” (≥50 = +++)”.

“531 (YTLPIASSIRL; listed as Homo sapiens) [compound 531]” was tested. Which “Peptide exchange” value did it give?
Its value is ““+++” (≥50 = +++)”.

Which “Peptide exchange” value does the source give for “33 (VLLSLLEKV; listed as Homo sapiens) [compound 33]” here?
The value was ““++” (≥20% = ++)”.

“526 (RLAEVGQYEQV; listed as Homo sapiens) [compound 526]” was tested. Which “Peptide exchange” value did it give?
The value was ““++” (≥20% = ++)”.

How did the “Peptide exchange” value turn out when “499 (KIFDIDEAEEGV; listed as Homo sapiens) [compound 499]” was run?
The value was ““++” (≥20% = ++)”.

Which “Peptide exchange” value does the source give for “273 (NLFQSVREV; listed as Homo sapiens) [compound 273]” here?
Its value is ““++” (≥20% = ++)”.

“505 (SLAPGDVVRQV; listed as Homo sapiens) [compound 505]” was tested. Which “Peptide exchange” value did it give?
The value was ““++” (≥20% = ++)”.

For “168 (KILDADIQL; listed as Homo sapiens) [compound 168]”, which “Peptide exchange” value is on record?
Its value is ““++++” (≥75% = ++++)”.

How did the “Peptide exchange” value turn out when “202 (ALLDQQGSRWTL; listed as Homo sapiens) [compound 202]” was run?
The value was ““+++” (≥50 = +++)”.

Which “Peptide exchange” value does the source give for “27 (ILADIVISA; listed as Homo sapiens) [compound 27]” here?
The value was ““+++” (≥50 = +++)”.
